# Laboratory results reported in the DeepSol protein solubility set.
# Assay: soluble on expression in E. coli; label from the status in PepcDB or PDB records
row,Sequence,soluble on expression in E. coli
1,SLDVCRGMLCGFGAVCEPSVEDPGRASCVCKKNVCPAMVAPVCGSDASTYSNECELQRAQCNQQRRIRLLRQGPCGSRDPCANVTCSFGSTCVPSADGQTASCLCPTTCFGAPDGTVCGSDGVDYPSECQLLRHACANQEHIFKKFDGPCDPCQGSMSDLNHICRVNPRTRHPEMLLRPENCPAQHTPICGDDGVTYENDCVMSRIGAARGLLLQKVRSGQCQT,soluble
2,SLEDYLQGCRAALQESRPLHVVLGNEACDLDSTVSALALAFYLAKTTEAEEVFVPVLNIKRSELPLRGDIVFFLQKVHIPESILIFRDEIDLHALYQAGQLTLILVDHHILSKSDTALEEAVAEVLDHRPIEPKHCPPCHVSVELVGSCATLVTERILQGAPEILDRQTAALLHGTIILDCVNMDLKIGKATPKDSKYVEKLEALFPDLPKRNDIFDSLQKAKFDVSGLTTEQMLRKDQKTIYRQGVKVAISAIYMDLEAFLQRSNLLADLHAFCQAHSYDVLVAMTIFFNTHNEPVRQLAIFCPHVALQTTICEVLERSHSPPLKLTPASSTHPNLHAYLQGNTQVSRKKLLPLLQEALSAYFDSMKIPSGQPETADVSREQVDKELDRASNSLISGLSQDEG,soluble
3,SLENVMRSLGFGFACKKGLKPDSPNQDDFAALCCSAFRLFGVFDGHGPSGHDVSGYVHRMLFALLLTDESLNRNPQLALRNAFVAPSKLRKSALLQVVCLPLFRPQPFTNVGGYDEAKAVRFVLFFSGGELKRLECDIPYRVFLKGRLYPGLAMSRALGDAIASHAGVSCEPDLSTVELDRSCLFVIIASDGVWEFISNQEAVNIVNEAMGSERKVRAKAAAERLALEAFKRWVEEEGNVVDDVFPVSPGGSHALPLLTTDPFIAKMKFLTNILLVLSCVLVLAGTVQGQKME,not soluble
4,SLERYIDGRAVKADIFDHPVSYNINEITHTDDVHEALTASLNKYGNVDMAYMESLTDKSQSDLLEELRGRIFYNPLSKNYEIADRFISGNVMAKAEHIEEYLQSHPDNGEARISLEALRQSLPAPIPFEDLDFNFGERWIPAGVYSRYASWLFDTDVSVRYTASSDEYSIRADMTSPRIMNQYSVRSESRIFNGIALMRHAIHNTTPNITKTVLDKTGKEMKIRDPEVTLLANSKIDEIRNGFSDWLMEQSPEFKRKMADMYNRKFNCFVRPKYDGSHQSFPGLDLKGLGIPDLYPSQ,not soluble
5,SLFGYHDVEDFQAEIGEYKIKTERIGPFYSYVRENGERKEKNLSVETGRIIVNPVEPVNLPKEITNFLQIKFSKPFLAEPKSAVEVYATFPVEIAVFIAAKKNVGLVDVFSLQKPKYTLYGNPRAGIICRYWESELYSEIPQVDKYREGVIKLRIVNSDDEWVEVSNAVFDVYGMKIYYNEEMVCSSASVNIVSPKVAETRFIEQPLREKMKKALELYTARRIAVTSLKFVMEWGL,not soluble
6,SLHPDTILHNGRVTTLDRGNPNATAVAIKDGLFVEVGSDAEVMALAGSETKIIDLKGKRVLPGLIDNHTHVIRGGLNFNMELRWDGVRSLADAMYMLKRQVAITPAPQWVRVVGGFTEHQFVEKRLPTIEEINAVAPDTPVFLLHLYDRALLNGAALRAVGYTKDTPNPPGGEITRDANGNPTGLLLAKPNAGILYSTLAKGPKLPLDYQVNSTRHFMRELNRLGVTGVIDAGGGFQNYPDDYEVIQKLSDENQMTVRLAYNLFTQKPKQEKEDFLNWTSSVKYKQGNDYFRHNGAGEMLVFSAADFEDFRQPRPDMPPEMEGELEDVVRILAENRWPWRLHATYDETISRALDVFEKVNRDIPLEGLNWFFDHAETISDRSIDRIAALGGGIATQHRMAYQGEYFVERYGQGVAEATPPIARMLEKGVNVSAGTDATRVASYNPWVSLFWMVTGKTVGGMQLYPRANCLDRETALRMWTEKVTWFSNEEGKKGRIEKGQFADLVVPDKDYFSCAEDEISFLTSELTMVGGKIVYGAGDFRVLDESNIPPAMPDWSPVRTFGGYAAWGEPQGAGKNSLRRAAITSCGCASDCGVHGHDHAGAWTSKLPIADLKGFFGALGCSCWAV,soluble
7,SLIDNPHAQDYWPNRGQMDVQGLAVKYTEAGRAVLSDISFSVEGGLSMGLLGRTGSGKSTLLSALLRLASTDGEISIDGISWNSVPLEKWRKAFGVVPQKVFILTGTFRMNLDPHGRYSDEELWRVADQVGLKSVIEQFPDRLDFQLENGGSVLSHGHKQLMCLARSILSKARILLLDEPSAYLDTITLQVLRKTLKHAFSDCTVILSEHKVEPLLECDSFLVIEGSSVKSYDSIQKLLNEMSDLKQAVSAAD,soluble
